This is an account of results in the supplement of paper PMC10724198.

± gives the standard deviation of the averaged measurements.
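Further: PSI is a weighted mean of sequencing reads over stability bins, variants kept only with over 10 reads, mCherry proximal and sfGFP distal, peptide attached via GGGS linker.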

The series deals with Saccharomyces cerevisiae. Put plainly: protein stability index of tFT-peptide fusion (C-terminal peptide) (PSI (0-1 scale)); higher = more stable (slower turnover). As to conditions: genetic background: wild type; temperature: 30 C.
As to SPPPLPPSPLSS, the protein stability index is 0.701 ± 0.046.
Regarding SPPPLPPVRPPV, the protein stability index was 0.722 ± 0.033.
In turn, SPPPMSPLLRPA showed a protein stability index of 0.653 ± 0.033.
Under SPPPPLELIPSP stands 0.534 ± 0.025; under SPPPPSRLPPPP, 0.748 ± 0.096.
Under SPPRPPPPSPPF stands 0.768 ± 0.015; under SPPRPPPVPPPP, 0.617 ± 0.054.
Under SPPRSSRTHAPP stands 0.7108 ± 0.006; under SPPSLRLPPPPA, 0.772 ± 0.021; under SPPSLYRRVRPS, 0.63 ± 0.084.
In the case of SPPSRASFPPPS, the protein stability index came to 0.682 ± 0.022.
SPRLPPPPPLPP displayed a protein stability index of 0.651 ± 0.11.
SPRLPPSTHSPP gave a protein stability index of 0.677 ± 0.15.
SPRLSSCPPAGF returned a protein stability index of 0.749 ± 0.017.
Under SPRPLFPPHRPT stands 0.651 ± 0.044; under SPRPPLLLPVTV, 0.53 ± 0.26.
Under SPRRFVVVSGQG stands 0.643 ± 0.012.
Under SPRRSPLLLLPL stands 0.723 ± 0.064; under SPRSATAPPPLP, 0.71 ± 0.028; under SPSFSLLFPFLL, 0.657 ± 0.037.
In turn, SPSPLSLRLPPP yielded a protein stability index of 0.632 ± 0.028.
Under SPSPPLPSRLIL stands 0.673 ± 0.026; under SPSRPRPPPHAP, 0.7624 ± 0.00086.
Under SPSSFLLSPPIP stands 0.764 ± 0.071; under SPSTPPPPSPPV, 0.647 ± 0.017.
Under SPTALPPPPVPP stands 0.662 ± 0.041.
SPTLSPPPPLAL registered a protein stability index of 0.667 ± 0.031.
SPTRMSAFVRLD displayed a protein stability index of 0.739 ± 0.071.
Under SPTSPAPPPNAS stands 0.67 ± 0.0092.
As to SPWERTEMTFPR, the protein stability index worked out at 0.822 ± 0.18.
Under SPYVGVALGGVW stands 0.704 ± 0.012.
In turn, SQVRYIANRKDG had a protein stability index of 0.635 ± 0.091.
Under SREEWQSSKLRD stands 0.784 ± 0.089; under SREYKRRTPSSK, 0.718 ± 0.03; under SRFEPLSCEQCS, 0.66 ± 0.05.
As to SRFFFSPRLCVP, the protein stability index came out at 0.604 ± 0.033.
In turn, SRFKTVDCWKVW returned a protein stability index of 0.697 ± 0.097.
Under SRFLTPLPLAMF stands 0.592 ± 0.018; under SRFQFCCCLFFF, 0.578 ± 0.0074; under SRGAFGPCEFFL, 0.712 ± 0.0076.
SRGGGRSEGGEG gave a protein stability index of 0.695 ± 0.033.
In turn, SRGGSGKDTGRT yielded a protein stability index of 0.657 ± 0.04.
Under SRGLVVYMDALR stands 0.692 ± 0.028.
Regarding SRGMRNPLSADR, the protein stability index was 0.645 ± 0.098.
Under SRGRTRLVAPIV stands 0.66 ± 0.14; under SRHIFAPFGLFG, 0.726 ± 0.056.
SRHVAGVGGGEV came in with a protein stability index of 0.652 ± 0.019.
SRKIAPNGTATL returned a protein stability index of 0.706 ± 0.012.
Under SRKTDTRLTMIN stands 0.692 ± 0.032.
Under SRLMGLGLLCVG stands 0.5272 ± 0.0013; under SRPPILAHPTPS, 0.707 ± 0.049.
For the sequence SRPPRSPPLPPV, the protein stability index was 0.686 ± 0.046.
Under SRPPSPPLCHPA stands 0.736 ± 0.054.
Under SRPRPPHTLLRP stands 0.688 ± 0.065; under SRPRTTRKAASS, 0.674 ± 0.012.
With SRRDRGHWSVRS, the protein stability index is 0.6198 ± 0.0039.
Under SRRETKTRLAPN stands 0.656 ± 0.14; under SRRGIRSSSAAR, 0.714 ± 0.065; under SRRRIENNKTEN, 0.695 ± 0.015.
Under SRRVVDVGVIRV stands 0.635 ± 0.02; under SRSLHGTEEYRE, 0.644 ± 0.099; under SRSPPRSGVPPL, 0.716 ± 0.032.
SRTDGLIYTALI showed a protein stability index of 0.676 ± 0.021.
The sequence SRTVSLDYHFMS displayed a protein stability index of 0.7319 ± 0.00097.
Under SRTYAHSPPLPA stands 0.699 ± 0.027; under SRVVCVGGRLFG, 0.702 ± 0.045; under SRYRSTSESMKV, 0.667 ± 0.038.
Under SRYSAVSVSRWH stands 0.696 ± 0.041; under SSALVLSGPPHS, 0.782 ± 0.1.
Turning to SSAPCLRIFVTR, the protein stability index turned out to be 0.737 ± 0.062.
For SSCRKFLFAIRR, the protein stability index came out at 0.685 ± 0.02.
Sequence SSGASRWSRSKF had a protein stability index of 0.762 ± 0.074.
Under SSGVIIGRIAVK stands 0.603 ± 0.033; under SSIEAGFSSIVI, 0.685 ± 0.04; under SSIGPTECSYFS, 0.678 ± 0.088.
Under SSLLPSPPPPLP stands 0.677 ± 0.028; under SSLPPPAPSFVP, 0.646 ± 0.1; under SSLTPRVSFIIF, 0.64 ± 0.12.
Under SSMCYARIIWWG stands 0.596 ± 0.039; under SSPAGSRLPFGS, 0.75 ± 0.11.
